The supplement of paper PMC10567573
± gives the standard deviation.

Test: protein stability index of a GFP-peptide fusion (GPS, HEK-293T) (PSI 1-6); higher = more stable
[1] = treatment: DMSO, c terminus: a fixed tail appended
[2] = treatment: MLN4924 1 uM, 8 h, c terminus: a fixed tail appended
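Further: 24-mer peptide tiles fused after GFP, lentivirally expressed, FACS-sorted into six equal bins by GFP/DsRed ratio, decoded by Illumina sequencing, PSI is the read-weighted mean bin number.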

| Sequence | protein stability index [1] | protein stability index [2] | protein stability index (treatment: DMSO, c terminus: native) | protein stability index (treatment: MLN4924 1 uM, 8 h, c terminus: native) |
| --- | --- | --- | --- | --- |
| LKLYYRRLFPYSQYYRWLNYGGVI [PRIM1] | 2.07 ± 0.7 | 2.6 ± 1.2 |  |  |
| FDQTVFQEVFEPPHYELCTLRGTG [NETO1] | 2.96 ± 0.12 | 2.97 ± 0.3 |  |  |
| SGHGDAHLQEYAGNFQGIRFHYDR [FATE1] | 3.32 ± 0.17 | 3.33 ± 0.1 |  |  |
| EAAPRQCIELYFDEKYSIEPSWEC [NETO1] | 2.48 ± 0.2 | 2.73 ± 0.57 |  |  |
| QTIQKTTTRRIVDGKVVSETNDTK [KRT18] | 5.34 ± 0.19 | 5.31 ± 0.23 |  |  |
| SLQFDEKCLSIMLAEWEANPLICP [RPAIN] | 2.33 ± 0.24 | 2.29 ± 0.18 |  |  |
| DSGASAITRESHTHRDRPSQQQPL [CSNK1G1] | 5.09 ± 0.15 | 5.15 ± 0.17 |  |  |
| ATNDDPWGPSGQLMGEIAKATFMY [CLINT1] | 2.34 ± 0.38 | 2.32 ± 0.27 |  |  |
| VCTISSTGPLQPQPKKPEDEPQET [PKD2L1] | 5.39 ± 0.21 | 5.48 ± 0.16 |  |  |
| ALKDNKSPLHLVQMPPVIVETARS [PI4K2A] | 3.8 ± 0.29 | 3.82 ± 0.29 |  |  |
| EHQYRLPPMGKAFQELAGKELCAM [SPDEF] | 3.19 ± 0.26 | 3.23 ± 0.098 |  |  |
| APRVRTAFTMEQVRTLEGVFQHHQ [VENTX] | 3.33 ± 0.22 | 3.26 ± 0.22 |  |  |
| QFLNDRLASYLEKVRQLERDNAEL [KRT33B] | 3.18 ± 0.18 | 3.33 ± 0.28 |  |  |
| GELGSIGDHERAIDFSPYLEPLGA [CEBPB] | 4.21 ± 0.6 | 4.18 ± 0.32 |  |  |
| EVKFPNASDMFRRLRDAGFRVTLW [MYORG] | 2.97 ± 0.74 | 2.17 ± 0.31 |  |  |
| ICGLQQDEEVSSLTCDALTELLAK [CCND2] | 3.48 ± 0.29 | 3.74 ± 0.36 |  |  |
| INVGGIKYSLPWTTLDEFPLTRLG [KCNG1] | 2.17 ± 0.6 | 2.06 ± 0.13 |  |  |
| EELAPVGTAHIPPTMHLESPALQV [ZNF449] | 4.18 ± 0.27 | 4.33 ± 0.091 |  |  |
| EKMALDPYTELRKQPLRKYVTPSD [EFHC1] | 4.03 ± 0.29 | 3.95 ± 0.064 |  |  |
| LESEGSPETLTNLRKGYLFMYNLV [HACD3] | 2.02 ± 0.2 | 1.97 ± 0.27 |  |  |
| TEFKELDGLREALANLRGLSEEER [CCDC89] | 5.05 ± 0.28 | 4.85 ± 0.28 |  |  |
| SQITDSEHNSSLVSQQTGSPGKQP [ZNF8] | 5.33 ± 0.16 | 5.26 ± 0.23 |  |  |
| DDWEDDYDYPEEEQLSGAGYRVSA [EID1] | 4.9 ± 0.29 | 5.04 ± 0.21 |  |  |

| Sequence | protein stability index [1] | protein stability index [2] | protein stability index (treatment: DMSO, c terminus: native) | protein stability index (treatment: MLN4924 1 uM, 8 h, c terminus: native) |
| --- | --- | --- | --- | --- |
| LAYYEVCSWKGATKQRIQDQKVPY [CHIT1] | 2.71 ± 0.4 | 2.8 ± 0.37 |  |  |
| PEVECLKANTNEVLWAVVAAFTK [GOLPH3] |  |  | 2.17 ± 0.17 | 2.25 ± 0.31 |
| LKYENELALRQGVEADINGLRRVL [KRT15] | 3.35 ± 0.23 | 3.6 ± 0.18 |  |  |
| AARSPQGLGASTAEISARTMQSMF [PTPRD] | 3.38 ± 0.26 | 3.29 ± 0.34 |  |  |
| RLICDFPFDGLLEERALLLGRMGK [VPS39] | 2.28 ± 0.25 | 2.28 ± 0.12 |  |  |
| SNPNGNGGFMGYSAENIPGCSSSG [CRY1] | 4.57 ± 0.24 | 4.34 ± 0.35 |  |  |
| LDCADALLKAGADVNKTDHSQRTA [INVS] | 5.09 ± 0.38 | 5.13 ± 0.43 |  |  |
| AQGRAGAPVPEPPKEEQQQALEQF [EPB41L3] | 5.62 ± 0.27 | 5.34 ± 0.3 |  |  |
| NGASWHTVAGSLNDFSYLHTNCFE [CPXM2] | 2.68 ± 0.47 | 2.83 ± 0.23 |  |  |
| FVRGDHRDNSPFDGPGGNLAHAFQ [MMP1] | 2.34 ± 0.6 | 3.06 ± 0.29 |  |  |
| AIPEAIGFVMVPFEYRGEQHKTCM [EDNRA] | 2.36 ± 0.32 | 2.31 ± 0.27 |  |  |
| EVRDRMLLKITIPNAFIGSDVVDW [DVL3] | 2.17 ± 0.43 | 2.46 ± 0.15 |  |  |
| RWLDESDAEMELRAKEEERLNKLR [HACD3] | 4.5 ± 0.3 | 4.84 ± 0.42 |  |  |
| EPEMAVFLQNAKTLLKKISEASKA [TRIM55] | 2.46 ± 0.3 | 2.25 ± 0.22 |  |  |
| HVLHHGTGKWYELQDLQVTDILPQ [USP39] | 2.82 ± 0.4 | 2.95 ± 0.39 |  |  |
| LGYLLLGAATNVFLFVLARVPAGI [MFSD9] | 3.29 ± 0.69 | 2.94 ± 0.4 |  |  |
| TAVHGRFTRSQTLIQNGGEIDCVD [ANKRD44] | 4.34 ± 0.14 | 4.48 ± 0.19 |  |  |
| PPSMVAAGSVVAAVQGLNLRSPNN [CCND1] | 4.31 ± 0.17 | 4.3 ± 0.26 |  |  |
| DGSVVRDFEHRPKAPVVECSITGD [WDR88] | 5.4 ± 0.21 | 5.32 ± 0.16 |  |  |
| QAVVLCSKKTFQITKQGDGVDFLS [USP39] | 2.57 ± 0.18 | 2.77 ± 0.38 |  |  |
| STMRRMALRPTAFSGCLNCSKVSE [EMID1] | 2.5 ± 0.21 | 3.13 ± 0.62 |  |  |
| SMAMEYFDEKIVPILKRKLPGSDV [FBXO28] | 3 ± 0.22 | 3.25 ± 0.073 |  |  |
| QELQIDDNEYAYLKAIIFFDPDAK [HNF4A] | 2.53 ± 0.22 | 2.72 ± 0.21 |  |  |

| Sequence | protein stability index [1] | protein stability index [2] | protein stability index (treatment: DMSO, c terminus: native) | protein stability index (treatment: MLN4924 1 uM, 8 h, c terminus: native) |
| --- | --- | --- | --- | --- |
| GSSNVGINRWRFLLQCLEDLDANL [CRY1] | 2.48 ± 0.52 | 2.4 ± 0.13 |  |  |
| ACALLLTSVDHDRAPVVGVRVNVL [DLC1] | 2.33 ± 0.32 | 2.68 ± 0.36 |  |  |
| IQFATPNDFCSFYNILKTCRGHTL [CARM1] | 2.47 ± 0.41 | 2.24 ± 0.22 |  |  |
| NHFDMHRVGKWHQDFPVKKRKKLS [ZNF75A] | 3.56 ± 0.24 | 3.92 ± 0.076 |  |  |
| ALAIKVNLCGHWYYSKACCRSCRP [ADAMTSL2] | 2.43 ± 0.38 | 2.77 ± 0.62 |  |  |
| FGSGSNGCLGHGSLTDISQPTIVE [NEK8] | 3.5 ± 0.34 | 3.91 ± 0.2 |  |  |
| FPGRPMGHLSKDVDENDSHEGEDQ [DLC1] | 4.7 ± 0.38 | 5.06 ± 0.31 |  |  |
| RPMSEPGAGAGSSLLDVAEPGGPG [SMAD6] | 5.11 ± 0.3 | 5.39 ± 0.16 |  |  |
| FSDPSQSDPETKDFWLNMAALTEA [FCHO1] | 3.4 ± 0.47 | 3.79 ± 0.37 |  |  |
| LRSRYSVASFKFDAGEVSYLPRDF [MYORG] | 2.37 ± 0.12 | 2.42 ± 0.37 |  |  |
| SRIYGQAMAIINGSLYVFGGTTGY [KLHDC10] | 2.92 ± 0.3 | 2.87 ± 0.6 |  |  |
| VQRLQAYTATEQEMQQQMSLGELC [TRIM14] | 4 ± 0.077 | 3.9 ± 0.21 |  |  |
| DLASAAAKQIMEETYKMEFMYSGV [INTS4] | 2.58 ± 0.52 | 2.5 ± 0.16 |  |  |
| FAVFPSLNEEQTLQEVPTGLDSIS [ETS2] | 3.81 ± 0.32 | 3.79 ± 0.39 |  |  |
| SIERSHRIATETDQIGSEIIEELG [VTI1B] | 4.88 ± 0.33 | 5 ± 0.2 |  |  |
| YQDKIRPYIQLPSHSNITGIVEVI [TRIB1] | 2.39 ± 0.3 | 2.17 ± 0.094 |  |  |
| HPKPKLVRVLESLLVSLVTTVVVF [CLCN6] | 3.49 ± 0.47 | 3.56 ± 0.25 |  |  |
| IRVKIADLGNACWVHKHFTEDIQT [SRPK2] | 2.43 ± 0.5 | 2.26 ± 0.57 |  |  |
| LSNKNGKNVELKFVDSIRRQFEFS [TENT5C] | 2.56 ± 0.24 | 2.48 ± 0.42 |  |  |
| AWNIPMSNPGVDFGDVSERLALRQ [GALNT9] | 3.68 ± 0.27 | 3.91 ± 0.26 |  |  |
| EGTNGQLDYSFGDHTSEAVRNLFG [PCDHGC5] | 3.89 ± 0.13 | 3.9 ± 0.32 |  |  |
| AEGRTGFPWIDAIMTQLRQEGWIH [CRY1] | 2.35 ± 0.3 | 2.13 ± 0.33 |  |  |
| IPPPLSSVYAWGGGLGTPLRLPML [NEK8] | 2.32 ± 0.087 | 2.32 ± 0.034 |  |  |

| Sequence | protein stability index [1] | protein stability index [2] | protein stability index (treatment: DMSO, c terminus: native) | protein stability index (treatment: MLN4924 1 uM, 8 h, c terminus: native) |
| --- | --- | --- | --- | --- |
| VFFFIFFVQDVLFVLQAIGIPGWG [SCAMP3] | 3.44 ± 0.83 | 2.93 ± 0.71 |  |  |
| EVQKLVESGVDVNSQNEVNGWTCL [ANKRD40] | 3.43 ± 0.53 | 3.33 ± 0.16 |  |  |
| IQQGINAVNQEAMNNAQRIEKWVI [ACSBG2] | 2.89 ± 0.44 | 2.94 ± 0.51 |  |  |
| IKSVLWQTLQALNFCHIHNCIHRD [CDKL4] | 3.15 ± 0.99 | 2.99 ± 0.72 |  |  |
| DSSEEKHLEEPGETQNAFLNERKQ [CHGB] | 5.5 ± 0.41 | 5.41 ± 0.36 |  |  |
| LPGNEEFQVVKDAVLDCLLDFLPK [TENT5D] | 2.32 ± 0.39 | 2.4 ± 0.21 |  |  |
| YMSQVLEKEMKAQEQRLGIRISMS [GMPPB] | 2.38 ± 0.094 | 2.74 ± 0.42 |  |  |
| VVEVTKGILEHVDSASPVEDTSND [M1AP] | 5.54 ± 0.23 | 5.47 ± 0.31 |  |  |
| QFGIKDVFDNAIRAALISRRHLQF [RHOBTB1] | 2.62 ± 0.38 | 2.59 ± 0.46 |  |  |
| ETLSGHGPLAQPLTLQVLVAGNPQ [ADAMTS4] | 3 ± 0.43 | 2.98 ± 0.31 |  |  |
| LLDCFGIPVLMALSWFILHARYRV [SLC35F2] | 3.07 ± 0.33 | 3.64 ± 0.27 |  |  |
| GSSGPAGLTLGRSFSNYRPFEPQA [SEPHS2] | 3.22 ± 0.12 | 3.28 ± 0.16 |  |  |
| QGGKDFNVPLSISRLTPGGKAAQA [PDLIM7] | 4.23 ± 0.26 | 4.35 ± 0.15 |  |  |
| SLRKSNTLCDVTLRVEQKDFPAHR [KLHL12] | 3.58 ± 0.3 | 3.91 ± 0.38 |  |  |
| YNILKTCRGHTLERSVFSERTEES [CARM1] | 2.56 ± 0.5 | 2.56 ± 0.6 |  |  |
| SINVMKQLIGSSNLFVMQVEMDIY [GMCL1] | 2.98 ± 0.49 | 2.82 ± 0.73 |  |  |
| DEDSEPEREVRAKNGRVDSEDRRS [USP39] | 5.62 ± 0.33 | 5.517 ± 0.016 |  |  |
| SNSEKAKNIFRIRFHDPSPAQSHT [NET1] | 3.13 ± 0.2 | 3.06 ± 0.37 |  |  |
| EALKHPWICQRSTVASMMHRQETV [CAMK2D] | 2.81 ± 0.28 | 2.73 ± 0.25 |  |  |
| PKELSSFSFSMKGHEKTAKSKTRS [DLC1] | 4.73 ± 0.31 | 4.78 ± 0.21 |  |  |
